Data from publication PMC2659244 (The Journal of Biological Chemistry, 2009).

T1: His-Avi-tagged β3-integrin tail, biotinylated (UniProt P05106 742-788, biotin (biotinylated tails, held on NeutrAvidin))
T1 chain (looked up): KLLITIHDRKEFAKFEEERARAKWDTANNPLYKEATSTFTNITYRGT

T2: His-Avi-tagged β1A-integrin tail, biotinylated (UniProt P05556-1 752-798, biotin (biotinylated tails, held on NeutrAvidin))
T2 chain (looked up): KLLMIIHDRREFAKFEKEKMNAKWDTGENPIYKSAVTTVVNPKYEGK

B1: talin rod polypeptide 1974-2541 (domain or fragment, UniProt P26039 1974-2541, looked up)
chain: GTQACITAASAVSGIIADLDTTIMFATAGTLNREGAETFADHREGILKTAKVLVEDTKVLVQNAAGSQEKLAQAAQSSVATITRLADVVKLGAASLGAEDPETQVVLINAVKDVAKALGDLISATKAAAGKVGDDPAVWQLKNSAKVMVTNVTSLLKTVKAVEDEATKGTRALEATTEHIRQELAVFCSPEPPAKTSTPEDFIRMTKGITMATAKAVAAGNSCRQEDVIATANLSRRAIADMLRACKEAAFHPEVAPDVRLRALHYGRECANGYLELLDHVLLTLQKPNPDLKQQLTGHSKRVAGSVTELIQAAEAMKGTEWVDPEDPTVIAENELLGAAAAIEAAAKKLEQLKPRAKPKEADESLNFEEQILEAAKSIAAATSALVKAASAAQRELVAQGKVGAIPANALDDGQWSQGLISAARMVAAATNNLCEAANAAVQGHASQEKLISSAKQVAASTAQLLVACKVKADQDSEAMKRLQAAGNAVKRASDNLVKAAQKAAAFEDQENETVVVKEKMVGGIAQIIAAQEEMLRKERELEEARKKLAQIRQQQYKFLPSELRDEH
B2: talin IBS2 polypeptide (residues 1974-2293), His/V5-tagged (domain or fragment, mouse, UniProt P26039 1974-2293, looked up)
chain: GTQACITAASAVSGIIADLDTTIMFATAGTLNREGAETFADHREGILKTAKVLVEDTKVLVQNAAGSQEKLAQAAQSSVATITRLADVVKLGAASLGAEDPETQVVLINAVKDVAKALGDLISATKAAAGKVGDDPAVWQLKNSAKVMVTNVTSLLKTVKAVEDEATKGTRALEATTEHIRQELAVFCSPEPPAKTSTPEDFIRMTKGITMATAKAVAAGNSCRQEDVIATANLSRRAIADMLRACKEAAFHPEVAPDVRLRALHYGRECANGYLELLDHVLLTLQKPNPDLKQQLTGHSKRVAGSVTELIQAAEAMKGT
B3: talin IBS2-A (residues 1974-2140), His/V5-tagged (domain or fragment, mouse, UniProt P26039 1974-2140, looked up)
chain: GTQACITAASAVSGIIADLDTTIMFATAGTLNREGAETFADHREGILKTAKVLVEDTKVLVQNAAGSQEKLAQAAQSSVATITRLADVVKLGAASLGAEDPETQVVLINAVKDVAKALGDLISATKAAAGKVGDDPAVWQLKNSAKVMVTNVTSLLKTVKAVEDEAT
B4: talin IBS2-B (residues 2137-2293), His/V5-tagged (domain or fragment, mouse, UniProt P26039 2137-2293, looked up)
chain: DEATKGTRALEATTEHIRQELAVFCSPEPPAKTSTPEDFIRMTKGITMATAKAVAAGNSCRQEDVIATANLSRRAIADMLRACKEAAFHPEVAPDVRLRALHYGRECANGYLELLDHVLLTLQKPNPDLKQQLTGHSKRVAGSVTELIQAAEAMKGT
B5: chicken vinculin domain 1 (residues 1-258) (domain or fragment, UniProt P12003 1-258, looked up)
chain: MPVFHTRTIESILEPVAQQISHLVIMHEEGEVDGKAIPDLTAPVSAVQAAVSNLVRVGKETVQTTEDQILKRDMPPAFIKVENACTKLVRAAQMLQADPYSVPARDYLIDGSRGILSGTSDLLLTFDEAEVRKIIRVCKGILEYLTVAEVVETMEDLVTYTKNLGPGMTKMAKMIDERQQELTHQEHRVMLVNSMNTVKELLPVLISAMKIFVTTKNTKSQGIEEALKNRNFTVEKMSAEINEIIRVLQLTSWDEDAW
B6: talin IBS2-A (residues 1974-2140), His tag removed (domain or fragment, mouse, UniProt P26039 1974-2140, looked up)
chain: B3 chain
B7: IBS2: recombinant murine talin residues 1974-2293, two five-helix bundles, integrin-binding site 2 (protein)
chain: B2 chain
modifications: left off: His tag, N-terminal, kept | V5 epitope, N-terminal, kept

What was measured:
[1] = biological target: T1, His-Avi-tagged β3-integrin tail, …; test: ELISA
[2] = biological target: T2, His-Avi-tagged β1A-integrin tail, …; test: ELISA
[3] = biological target: T3, talin IBS2 polypeptide (residues 1974-2293), His tag removed (mouse, UniProt P26039 1974-2293); test: SEC
[4] = biological target: B5; test: SEC
[5] = biological target: T3, talin IBS2 polypeptide (residues …); test: NMR titration
β3-integrin tail = test: ELISA-type binding of talin polypeptides to immobilized β3-integrin tails

With B1 as the molecule, how does the EC50 [1] read?
The EC50 was over 2500 nM.

What does the source list for B2?
EC50 [1]: 900 ± 200 nM; EC50 [2]: 900 ± 100 nM

Which EC50 [1] does the source give for B3 here?
The EC50 was over 2500 nM.

Which EC50 [1] does the source give for B4 here?
The EC50 was over 2500 nM.

Does B5 bind [3]?
Result: binds

Does B6 bind [4]?
Result: binds

Does KLLITIHDRKEFAKFEEERARAKWDTANNPLYKEATSTFTNITYRGT (peptide, UniProt P05106 742-788, looked up) [full-length β3-integrin tail peptide (residues 716-762)] bind [5]?
Result: binds

Which “affinity for β-integrin tails, fold weaker than binding by the talin FERM domain” value (β3-integrin tail) does the source give for B7 here?
Its value is about 2 fold.
